Publication PMC6080891 (The Journal of General Physiology, 2018)

Biological target: the molecule itself
Test: native gel or EMSA

B1: UNC-103::GFP (natural protein, C. elegans, UniProt G5EFJ9 1-829, looked up)
chain: MKTAVFGRDSGEPGSPCGAPPSLTFTPPATLVPPTHHHSRSTNRGGVSGTGGGGSGGLQGAPGAGGPRASHSSRRTSRLHNNVSALGVLSLGADVLPEYKLQPTRIHHCTIVHYSPFKAVWDWIILLLVIYTAVFTPYVAAFLLRELQDTAKKSRFTEPLEIVDLIVDIMFIVDIIINFRTTYVNENDEACQVVSDPGKIATHYFKGWFIIDMVAAVPFDLLLVSTNSDETTTLIGLLKTARLLRLVRVARKLDRYSEYGAAVLLLLMATFALIAHWLACIWYAIGSAELSHKEYTWLHQLSKQLAQPYTSTNGTIPTGGPTLKSRYVTSLYFTLSTITSIGFGNVSATTDSEKIFTIIMMILGSLMYASVFGNVSAIIQRLYSGTARYHTEMSRLREFIRFHQIPNPLRQRLEEYFQHAWSYTNGIDMNLVLKGFPDCLQADICLHLNRNLLSGCAAFAGSTPGCLRALSMRFRTTHSPPGDTLVHRGDILTGLYFIARGSVEILNDDNTVMGILGKDDIFGENPLLYDEVGKSSCNVRALTYCDLHKILRDDLLDVLDMYPEFAETFCKNLTITYNLRDDAQSLRKKFDRHKLLRMSSSMNKDRYTTPPDGDHGNAAVRRSAESVSRCDSNPIDRRQSAGSRSSSRCSPPHAALTATRSEATPLLRRSTNHHEEDDALFDDIRAFARGNTVTMSPTVAGNSVSPTTAIHNDGIHSQQLSDRSDDYEERRANMFGRRLESIESQMERMQNKFNSDMETLIKLVKEQSIIRNNGSSNEEPNARYRPNNYISSAIRLPNGGGGGVVDEMRVSRLSSHEPPTPTQETDTIL
stoichiometry N: 4
